# Laboratory results as given in the supplement of paper PMC10567573.
# B1: PBXIP1 (parent)
# chain: LPVETLGPASRMDPESERALQAPH
# Variants of: B1
# Assay: protein stability index of a GFP-peptide fusion (GPS, HEK-293T) (PSI 1-6); higher = more stable
# Conditions: c terminus: a fixed tail appended
# 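Also: lentivirally expressed fusions sorted by FACS into six bins by GFP to DsRed ratio, PSI derived from sequencing read proportions per bin multiplied by bin number.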
row,Variant,protein stability index
1,LPVETLGPASTMDPESERALQAPH,4.2
2,LPVETLGPASVMDPESERALQAPH,4.66
3,LPVETLGPASWMDPESERALQAPH,3.7
4,LPVETLGPASYMDPESERALQAPH,3.67
5,LPVETLGPASRADPESERALQAPH,4.31
6,LPVETLGPASRCDPESERALQAPH,4.32
7,LPVETLGPASRDDPESERALQAPH,4.95
8,LPVETLGPASREDPESERALQAPH,4.46
9,LPVETLGPASRFDPESERALQAPH,4.15
10,LPVETLGPASRGDPESERALQAPH,4.4
11,LPVETLGPASRHDPESERALQAPH,4.11
12,LPVETLGPASRIDPESERALQAPH,4.5
13,LPVETLGPASRKDPESERALQAPH,5.34
14,LPVETLGPASRLDPESERALQAPH,4.04
15,LPVETLGPASRNDPESERALQAPH,4.41
16,LPVETLGPASRPDPESERALQAPH,4.35
17,LPVETLGPASRQDPESERALQAPH,4.89
18,LPVETLGPASRRDPESERALQAPH,4.33
19,LPVETLGPASRSDPESERALQAPH,4.11
20,LPVETLGPASRTDPESERALQAPH,4.45
21,LPVETLGPASRVDPESERALQAPH,4.34
22,LPVETLGPASRWDPESERALQAPH,4.17
23,LPVETLGPASRYDPESERALQAPH,4.09
24,LPVETLGPASRMAPESERALQAPH,4.61

row,Variant,protein stability index
1,LPVETLGPASRMCPESERALQAPH,3.64
2,LPVETLGPASRMEPESERALQAPH,4.66
3,LPVETLGPASRMFPESERALQAPH,4.48
4,LPVETLGPASRMGPESERALQAPH,4.41
5,LPVETLGPASRMHPESERALQAPH,3.83
6,LPVETLGPASRMIPESERALQAPH,4.61
7,LPVETLGPASRMKPESERALQAPH,3.98
8,LPVETLGPASRMLPESERALQAPH,3.75
9,LPVETLGPASRMMPESERALQAPH,4.11
10,LPVETLGPASRMNPESERALQAPH,4.66
11,LPVETLGPASRMPPESERALQAPH,4.13
12,LPVETLGPASRMQPESERALQAPH,3.7
13,LPVETLGPASRMRPESERALQAPH,2.62
14,LPVETLGPASRMSPESERALQAPH,3.88
15,LPVETLGPASRMTPESERALQAPH,4.28
16,LPVETLGPASRMVPESERALQAPH,4.38
17,LPVETLGPASRMWPESERALQAPH,3.71
18,LPVETLGPASRMYPESERALQAPH,3.73
19,LPVETLGPASRMDAESERALQAPH,4.62
20,LPVETLGPASRMDCESERALQAPH,4.13
21,LPVETLGPASRMDDESERALQAPH,4.44
22,LPVETLGPASRMDEESERALQAPH,4.61
23,LPVETLGPASRMDFESERALQAPH,4.32
24,LPVETLGPASRMDGESERALQAPH,3.56

row,Variant,protein stability index
1,LPVETLGPASRMDHESERALQAPH,3.61
2,LPVETLGPASRMDIESERALQAPH,4.22
3,LPVETLGPASRMDKESERALQAPH,4.43
4,LPVETLGPASRMDLESERALQAPH,3.91
5,LPVETLGPASRMDMESERALQAPH,4.04
6,LPVETLGPASRMDNESERALQAPH,4
7,LPVETLGPASRMDQESERALQAPH,4.75
8,LPVETLGPASRMDRESERALQAPH,4.19
9,LPVETLGPASRMDSESERALQAPH,4.09
10,LPVETLGPASRMDTESERALQAPH,4.37
11,LPVETLGPASRMDVESERALQAPH,4.42
12,LPVETLGPASRMDWESERALQAPH,3.81
13,LPVETLGPASRMDYESERALQAPH,3.72
14,LPVETLGPASRMDPASERALQAPH,4.35
15,LPVETLGPASRMDPCSERALQAPH,3.82
16,LPVETLGPASRMDPDSERALQAPH,5.08
17,LPVETLGPASRMDPFSERALQAPH,3.81
18,LPVETLGPASRMDPGSERALQAPH,3.99
19,LPVETLGPASRMDPHSERALQAPH,4.13
20,LPVETLGPASRMDPISERALQAPH,3.27
21,LPVETLGPASRMDPKSERALQAPH,4.04
22,LPVETLGPASRMDPLSERALQAPH,4.03
23,LPVETLGPASRMDPMSERALQAPH,3.48
24,LPVETLGPASRMDPNSERALQAPH,4.47

row,Variant,protein stability index
1,LPVETLGPASRMDPPSERALQAPH,3.92
2,LPVETLGPASRMDPQSERALQAPH,4.26
3,LPVETLGPASRMDPRSERALQAPH,4.19
4,LPVETLGPASRMDPSSERALQAPH,3.81
5,LPVETLGPASRMDPTSERALQAPH,4.02
6,LPVETLGPASRMDPVSERALQAPH,4.28
7,LPVETLGPASRMDPWSERALQAPH,3.1
8,LPVETLGPASRMDPYSERALQAPH,3.95
9,LPVETLGPASRMDPEAERALQAPH,4.16
10,LPVETLGPASRMDPECERALQAPH,4.49
11,LPVETLGPASRMDPEDERALQAPH,4.54
12,LPVETLGPASRMDPEEERALQAPH,4.48
13,LPVETLGPASRMDPEFERALQAPH,3.85
14,LPVETLGPASRMDPEGERALQAPH,4.56
15,LPVETLGPASRMDPEHERALQAPH,4.25
16,LPVETLGPASRMDPEIERALQAPH,3.77
17,LPVETLGPASRMDPEKERALQAPH,4.34
18,LPVETLGPASRMDPELERALQAPH,2.83
19,LPVETLGPASRMDPEMERALQAPH,4.09
20,LPVETLGPASRMDPENERALQAPH,4.54
21,LPVETLGPASRMDPEPERALQAPH,3.95
22,LPVETLGPASRMDPEQERALQAPH,4.53
